Source: PMC7935953, “Insights on autophagosome–lysosome tethering from structural and biochemical characterization of human autophagy factor EPG5” (Communications Biology, 2021)

Legend:
Assay in all cases: pull-down; GST pull-down: purified GST-LC3A/B/C or GST-GABARAP/L1/L2 bait (200–240 µg) on glutathione resin, purified His-FLAG-hEPG5 or mutant (25–30 µg) as prey; 50 mM Tris pH 8.0, 150 mM NaCl, 5% glycerol, 0.01% Tween20, 0.5 mM DTT, 4 °C; anti-FLAG fluorescence western blot
[1] = target: GST-GABARAPL1 (human) (UniProt Q9H0R8)
[2] = target: GST-GABARAPL2 (human) (UniProt P60520)
[3] = target: GST-GABARAP (human) (UniProt O95166)
Chain of GST-GABARAP (human) (O95166 whole entry): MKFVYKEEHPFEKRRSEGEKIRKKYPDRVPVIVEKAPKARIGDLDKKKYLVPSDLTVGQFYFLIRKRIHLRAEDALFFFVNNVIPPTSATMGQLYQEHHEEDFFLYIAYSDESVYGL

Chain of GST-GABARAPL2 (human) (P60520 whole entry): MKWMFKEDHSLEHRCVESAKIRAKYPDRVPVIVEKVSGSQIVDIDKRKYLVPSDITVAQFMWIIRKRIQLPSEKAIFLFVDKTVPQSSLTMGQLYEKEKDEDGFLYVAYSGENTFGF
Chain of GST-GABARAPL1 (human) (Q9H0R8 whole entry): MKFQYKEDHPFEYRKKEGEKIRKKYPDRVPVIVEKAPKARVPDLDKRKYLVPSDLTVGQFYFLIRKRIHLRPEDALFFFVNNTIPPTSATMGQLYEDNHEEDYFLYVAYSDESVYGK

fold more hEPG5 precipitated than by the LC3 subfamily [1]: 2.5 times
fold more hEPG5 precipitated than by the LC3 subfamily [2]: 2.5 times
fold more hEPG5 precipitated than by the LC3 subfamily [3]: 2.5 times
Substance: His-FLAG-hEPG5 (human EPG5, full length, wild type), Q9HCE0 1-2579
